{
  "source": "patent US20080176225A1",
  "about": "“MEMBRANE BOUND REPORTER GENE SYSTEM” (priority 2007, published 2008)",
  "molecules": {"B1": {"name": "E. coli β-glucuronidase: purified recombinant E. coli β-glucuronidase protein (protein, UniProt P05804 1-603, looked up)", "Beta-glucuronidase": "MLRPVETPTREIKKLDGLWAFSLDRENCGIDQRWWESALQESRAIAVPGSFNDQFADADIRNYAGNVWYQREVFIPKGWAGQRIVLRFDAVTHYGKVWVNNQEVMEHQGGYTPFEADVTPYVIAGKSVRITVCVNNELNWQTIPPGMVITDENGKKKQSYFHDFFNYAGIHRSVMLYTTPNTWVDDITVVTHVAQDCNHASVDWQVVANGDVSVELRDADQQVVATGQGTSGTLQVVNPHLWQPGEGYLYELCVTAKSQTECDIYPLRVGIRSVAVKGEQFLINHKPFYFTGFGRHEDADLRGKGFDNVLMVHDHALMDWIGANSYRTSHYPYAEEMLDWADEHGIVVIDETAAVGFNLSLGIGFEAGNKPKELYSEEAVNGETQQAHLQAIKELIARDKNHPSVVMWSIANEPDTRPQGAREYFAPLAEATRKLDPTRPITCVNVMFCDAHTDTISDLFDVLCLNRYYGWYVQSGDLETAEKVLEKELLAWQEKLHQPIIITEYGVDTLAGLHSMYTDMWSEEYQCAWLDMYHRVFDRVSAVVGEQVWNFADFATSQGILRVGGNKKGIFTRDRKPKSAAFLLQKRWTGMNFGEKPQQGGKQ"}, "B2": {"name": "mouse β-glucuronidase: purified recombinant mouse β-glucuronidase protein (protein, listed as Mus musculus)", "chain": "LKGGMLFPKESPSRELKALDGLWHFRADLSNNRLQGFEQQWYRQPLRESGPVLDMPVPSSFNDITQEAALRDFIGWVWYEREAILPRRWTQDTDMRVVLRINSAHYYAVVWVNGIHVVEHEGGHLPFEADISKLVQSGPLTTCRITIAINNTLTPHTLPPGTIVYKTDTSMYPKGYFVQDTSFDFFNYAGLHRSVVLYTTPTTYIDDITVITNVEQDIGLVTYWISVQGSEHFQLEVQLLDEDGKVVAHGTGNQGQLQVPSANLWWPYLMHEHPAYMYSLEVKVTTTESVTDYYTLPVGIRTVAVTKSKFLINGKPFYFQGVNKHEDSDIRGKGFDWPLLVKDFNLLRWLGANSFRTSHYPYSEEVLQLCDRYGIVVIDECPGVGIVLPQSFGNESLRHHLEVMEELVRRDKNHPAVVMWSVANEPSSALKPAAYYFKTLITHTKALDLTRPVTFVSNAKYDADLGAPYVDVICVNSYFSWYHDYGHLEVIQPQLNSQFENWYKTHQKPIIQSEYGADAIPGIHEDPPRMFSEEYQKAVLENYHSVLDQKRKEYVVGELIWNFADFMTNQSPLRVIGNKKGIFTRQRQPKTSAFILRERYWRIANETGGHGSGPRTQCFGSRPFTF"}, "B3": {"name": "mβG-e-B7: murine β-glucuronidase fused to immunoglobulin-like C2-type extracellular region, transmembrane domain and cytoplasmic tail of murine B7-1 antigen (protein)", "chain": "LKGGMLFPKESPSRELKALDGLWHFRADLSNNRLQGFEQQWYRQPLRESGPVLDMPVPSSFNDITQEAALRDFIGWVWYEREAILPRRWTQDTDMRVVLRINSAHYYAVVWVNGIHVVEHEGGHLPFEADISKLVQSGPLTTCRITIAINNTLTPHTLPPGTIVYKTDTSMYPKGYFVQDTSFDFFNYAGLHRSVVLYTTPTTYIDDITVITNVEQDIGLVTYWISVQGSEHFQLEVQLLDEDGKVVAHGTGNQGQLQVPSANLWWPYLMHEHPAYMYSLEVKVTTTESVTDYYTLPVGIRTVAVTKSKFLINGKPFYFQGVNKHEDSDIRGKGFDWPLLVKDFNLLRWLGANSFRTSHYPYSEEVLQLCDRYGIVVIDECPGVGIVLPQSFGNESLRHHLEVMEELVRRDKNHPAVVMWSVANEPSSALKPAAYYFKTLITHTKALDLTRPVTFVSNAKYDADLGAPYVDVICVNSYFSWYHDYGHLEVIQPQLNSQFENWYKTHQKPIIQSEYGADAIPGIHEDPPRMFSEEYQKAVLENYHSVLDQKRKEYVVGELIWNFADFMTNQSPLRVIGNKKGIFTRQRQPKTSAFILRERYWRIANETGGHGSGPRTQCFGSRPFTFVDEQKLISEEDLADFSTPNITESGNPSADTKRITCFASGGFPKPRFSWLENGRELPGINTTISQDPESELYTISSQLDFNTTRNHTIKCLIKYGDAHVSEDFTWEKPPEDPPDSKNTLVLFGAGFGAVITVVVIVVIIKCFCKHRSCFRRNEASRETNNSLTFGPEEALAEQTVFL"}, "B4": {"name": "hβG-e-B7: human β-glucuronidase fused to Ig-like C2-type and Ig-hinge-like domains, TM and cytoplasmic tail of murine B7-1 (protein)", "chain": "LQGGMLYPQESPSRECKELDGLWSFRADFSDNRRRGFEEQWYRRPLWESGPTVDMPVPSSFNDISQDWRLRHFVGWVWYEREVILPERWTQDLRTRVVLRIGSAHSYAIVWVNGVDTLEHEGGYLPFEADISNLVQVGPLPSRLRITIAINNTLTPTTLPPGTIQYLTDTSKYPKGYFVQNTYFDFFNYAGLQRSVLLYTTPTTYIDDITVTTSVEQDSGLVNYQISVKGSNLFKLEVRLLDAENKVVANGTGTQGQLKVPGVSLWWPYLMHERPAYLYSLEVQLTAQTSLGPVSDFYTLPVGIRTVAVTKSQFLINGKPFYFHGVNKHEDADIRGKGFDWPLLVKDFNLLRWLGANAFRTSHYPYAEEVMQMCDRYGIVVIDECPGVGLALPQFFNNVSLHHHMQVMEEVVRRDKNHPAVVMWSVANEPASHLESAGYYLKMVIAHTKSLDPSRPVTFVSNSNYAADKGAPYVDVICLNSYYSWYHDYGHLELIQLQLATQFENWYKKYQKPIIQSEYGAETIAGFHQDPPLMFTEEYQKSLLEQYHLGLDQKRRKYVVGELIWNFADFMTEQSPTRVLGNKKGIFTRQRQPKSAAFLLRERYWKIANETRYPHSVAKSQCLENSPFTVDEQKLISEEDLADFSTPNITESGNPSADTKRITCFASGGFPKPRFSWLENGRELPGINTTISQDPESELYTISSQLDFNTTRNHTIKCLIKYGDAHVSEDFTWEKPPEDPPDSKNTLVLFGAGFGAVITVVVIVVIIKCFCKHRSCFRRNEASRETNNSLTFGPEEALAEQTVFL"}, "B5": {"name": "human β-glucuronidase: purified recombinant human β-glucuronidase protein (protein, listed as Homo sapiens)", "chain": "LQGGMLYPQESPSRECKELDGLWSFRADFSDNRRRGFEEQWYRRPLWESGPTVDMPVPSSFNDISQDWRLRHFVGWVWYEREVILPERWTQDLRTRVVLRIGSAHSYAIVWVNGVDTLEHEGGYLPFEADISNLVQVGPLPSRLRITIAINNTLTPTTLPPGTIQYLTDTSKYPKGYFVQNTYFDFFNYAGLQRSVLLYTTPTTYIDDITVTTSVEQDSGLVNYQISVKGSNLFKLEVRLLDAENKVVANGTGTQGQLKVPGVSLWWPYLMHERPAYLYSLEVQLTAQTSLGPVSDFYTLPVGIRTVAVTKSQFLINGKPFYFHGVNKHEDADIRGKGFDWPLLVKDFNLLRWLGANAFRTSHYPYAEEVMQMCDRYGIVVIDECPGVGLALPQFFNNVSLHHHMQVMEEVVRRDKNHPAVVMWSVANEPASHLESAGYYLKMVIAHTKSLDPSRPVTFVSNSNYAADKGAPYVDVICLNSYYSWYHDYGHLELIQLQLATQFENWYKKYQKPIIQSEYGAETIAGFHQDPPLMFTEEYQKSLLEQYHLGLDQKRRKYVVGELIWNFADFMTEQSPTRVLGNKKGIFTRQRQPKSAAFLLRERYWKIANETRYPHSVAKSQCLENSPFT"}},
  "key": {"[1]": {"assay": "Specific activity and pH profile of purified recombinant β-glucuronidases", "format": "biochemical", "conditions": "purified recombinant protein, n=3; for maximal specific activity: at optimal pH", "description": "It is contemplated that the disparity between the relative surface expression levels the relative enzymatic activity of human β-glucuronidase, mouse β-glucuronidase, and E. coli β-glucuronidase in EJ cells is probably because of the neutral pH optimum of E. coli β-glucuronidase or a highly specific enzyme activity for the recombinant E. coli β-glucuronidase enzyme, which could cause the relatively effective hydrolysis of glucuronide substrates even though even though the expression levels of E. coli β-glucuronidase present on EJ/eβG cells are relatively lower than the expression levels of human β-glucuronidase. To differentiate these possibilities, recombinant forms of each enzyme are purified in order to measure accurately their specific activities at defined pH values.\nThe relative enzymatic activities (percentage maximum activity) of these recombinant enzymes at the indicated pH values are shown (n=3).\nE. coli β-glucuronidase display a maximal specific activity of about 20,000 U/mg whereas human β-glucuronidase and mouse β-glucuronidase had maximal specific activities of abut 1600 U/mg and about 1100 U/mg, respectively."}, "EJ cells": {"tested_on": "EJ cells", "assay": "Surface β-glucuronidase enzyme activity of stable EJ cells", "format": "cell-based, human", "conditions": "triplicate determinations", "protocol": "(§1) For performing surface enzyme activity assay, transiently-transfected 3T3 fibroblasts in 96-well microplates were washed once with phosphate-buffered saline and immediately assayed for βG activity by adding about 200 μl of phosphate-buffered saline (pH 7.0) buffer containing 0.1% of BSA and 0.25 mM of a β-glucuronidase substrate, 4-methylumbelliferyl β-D-glucuronide, for 30 min at 37° C. About 150 μl of the resulting mixture was transferred to a 96-well fluorescence microplate and mixed with about 75 μl of a stop buffer containing about 1 M of glycine and about 0.5 M of sodium bicarbonate at pH 11. The fluorescence of each mixture was measured at an excitation wavelength of 365 nm and an emission wavelength of 455 nm.\nThe results shown are the mean values of triplicate determinations. EJ/mβG cells display about 2-3 fold more β-glucuronidase activity than EJ/eβG cells and about 5-fold higher activity than EJ/hβG cells. […] The enzymatic activity of E. coli β-glucuronidase in EJ cells are relatively higher than human β-glucuronidase, even though the expression levels of E. coli β-glucuronidase present on EJ/eβG cells are relatively lower than the expression levels of human β-glucuronidase."}, "3T3 fibroblasts": {"tested_on": "3T3 fibroblasts", "assay": "Surface enzyme activity assay of transiently transfected 3T3 fibroblasts (4-methylumbelliferyl β-D-glucuronide)", "format": "cell-based, murine", "protocol": "as §1\n3T3 fibroblasts were transfected with plasmid DNAs using lipofectamine. After about 48 hour, the transfected cells were washed with phosphate-buffered saline and immediately assayed for β-glucuronidase activity by adding 4-methylumbelliferyl β-D-glucuronide for about 30 min at 37° C. The fluorescence (MUG reading as shown) of the resulting mixture was measured. The β-glucuronidase activity in the culture medium of transfected cells was also measured in an analogous way."}},
  "data": [
    {"molecule": "B1", "values": [
      {"measurement": "maximal specific activity", "setting": "[1]", "value": "about 20,000 U/mg"},
      {"measurement": "pH of maximal/optimal enzymatic activity", "setting": "[1]", "value": "neutral pH range"}
    ]},
    {"molecule": "B2", "values": [
      {"measurement": "maximal specific activity", "setting": "[1]", "value": "about 1100 U/mg"}
    ]},
    {"molecule": "B3", "values": [
      {"measurement": "surface β-glucuronidase activity of EJ/mβG cells relative to EJ/hβG cells", "setting": "EJ cells; higher activity", "value": "about 5 fold"},
      {"measurement": "surface β-glucuronidase activity of EJ/mβG cells relative to EJ/eβG cells", "setting": "EJ cells; more activity", "value": "2-3 fold"}
    ]},
    {"molecule": "B4", "values": [
      {"measurement": "β-glucuronidase enzyme activity on the cell surface", "setting": "3T3 fibroblasts", "value": "greatest levels"}
    ]},
    {"molecule": "B5", "values": [
      {"measurement": "maximal specific activity", "setting": "[1]", "value": "~1600", "unit": "U/mg"}
    ]}
  ]
}
